Biological target: Death receptor 4 (DR4) on primary human pancreatic stellate cells (human) (UniProt O00220)
Assay: cell-based or functional assay

Q: “mapatumumab (human anti-DR4 antibody, Creative Biolabs)” was tested. Which caspase-3/7 activity (apoptosis marker), culture-activated PSCs, 10^3 ng/mL did it give?
A: The caspase-3/7 activity (apoptosis marker), culture-activated PSCs, 10^3 ng/mL was 1.27 fold.
